According to patent publication US20220041691A1, “METHODS FOR DIAGNOSING OR TREATING POST-TRAUMATIC STRESS DISORDER, AND COMPOSITIONS THEREFOR” (Centre for Addiction and Mental Health, priority 2018, published 2022):
Entries after “also recorded” stand apart in the source; their conditions may differ. Where two headings read alike, the source gives them in different places. Ends that are not written are not given here.

T1: FKBP51-TPR (Homo sapiens, UniProt Q13451)
T1 construct: made in house; host or cells: bacteria
T1 sequence (Q13451 258-457): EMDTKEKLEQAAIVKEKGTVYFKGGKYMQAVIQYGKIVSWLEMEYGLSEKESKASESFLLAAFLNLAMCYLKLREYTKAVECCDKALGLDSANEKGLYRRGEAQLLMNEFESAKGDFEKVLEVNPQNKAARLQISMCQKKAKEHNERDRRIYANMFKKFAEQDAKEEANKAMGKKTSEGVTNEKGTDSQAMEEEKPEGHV

T2: FKBP51 (Mus musculus, UniProt Q64378)
T2 construct: from tissue; host or cells: mouse brain
T2 sequence (Q64378 1-456): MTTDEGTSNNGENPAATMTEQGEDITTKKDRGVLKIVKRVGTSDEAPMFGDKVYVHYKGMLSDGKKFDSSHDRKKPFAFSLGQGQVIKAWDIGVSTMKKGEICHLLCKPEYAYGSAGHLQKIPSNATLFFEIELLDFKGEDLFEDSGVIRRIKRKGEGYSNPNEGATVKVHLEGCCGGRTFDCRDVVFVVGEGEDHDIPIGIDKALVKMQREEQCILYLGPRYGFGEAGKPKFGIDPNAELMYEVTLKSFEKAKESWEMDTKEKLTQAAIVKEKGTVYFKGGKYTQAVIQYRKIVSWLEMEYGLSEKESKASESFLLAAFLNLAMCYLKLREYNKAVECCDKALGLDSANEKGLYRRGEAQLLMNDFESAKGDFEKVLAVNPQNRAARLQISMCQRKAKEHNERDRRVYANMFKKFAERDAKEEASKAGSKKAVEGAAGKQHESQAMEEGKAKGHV

T3: FK506 Binding Protein 51 (FKBP51), endogenous, mouse brain / mouse lymphocyte lysate (mouse, UniProt Q64378 1-456)
T3 construct: Endogenous protein in tissue lysate; also called mouse FKBP51
T3 sequence (looked up): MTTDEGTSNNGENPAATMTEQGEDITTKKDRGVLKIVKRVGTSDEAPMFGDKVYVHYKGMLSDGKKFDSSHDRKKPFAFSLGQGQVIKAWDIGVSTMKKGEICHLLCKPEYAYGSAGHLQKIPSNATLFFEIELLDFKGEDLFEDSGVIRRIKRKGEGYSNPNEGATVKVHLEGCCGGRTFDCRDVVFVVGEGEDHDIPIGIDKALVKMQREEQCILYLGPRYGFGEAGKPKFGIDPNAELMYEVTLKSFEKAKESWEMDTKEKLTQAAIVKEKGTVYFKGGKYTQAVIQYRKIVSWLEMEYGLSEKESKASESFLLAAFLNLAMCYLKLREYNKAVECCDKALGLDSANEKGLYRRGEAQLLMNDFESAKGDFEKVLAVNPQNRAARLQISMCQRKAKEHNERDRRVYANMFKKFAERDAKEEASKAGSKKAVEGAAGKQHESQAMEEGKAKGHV

T4: glucocorticoid receptor (GR), endogenous, mouse brain / mouse lymphocyte lysate (mouse, UniProt P06537 1-792, limits assumed)
T4 construct: Endogenous protein in tissue lysate; other cellular proteins are present in the co-IP and pull-down experiments; also called mouse GR
T4 sequence (looked up): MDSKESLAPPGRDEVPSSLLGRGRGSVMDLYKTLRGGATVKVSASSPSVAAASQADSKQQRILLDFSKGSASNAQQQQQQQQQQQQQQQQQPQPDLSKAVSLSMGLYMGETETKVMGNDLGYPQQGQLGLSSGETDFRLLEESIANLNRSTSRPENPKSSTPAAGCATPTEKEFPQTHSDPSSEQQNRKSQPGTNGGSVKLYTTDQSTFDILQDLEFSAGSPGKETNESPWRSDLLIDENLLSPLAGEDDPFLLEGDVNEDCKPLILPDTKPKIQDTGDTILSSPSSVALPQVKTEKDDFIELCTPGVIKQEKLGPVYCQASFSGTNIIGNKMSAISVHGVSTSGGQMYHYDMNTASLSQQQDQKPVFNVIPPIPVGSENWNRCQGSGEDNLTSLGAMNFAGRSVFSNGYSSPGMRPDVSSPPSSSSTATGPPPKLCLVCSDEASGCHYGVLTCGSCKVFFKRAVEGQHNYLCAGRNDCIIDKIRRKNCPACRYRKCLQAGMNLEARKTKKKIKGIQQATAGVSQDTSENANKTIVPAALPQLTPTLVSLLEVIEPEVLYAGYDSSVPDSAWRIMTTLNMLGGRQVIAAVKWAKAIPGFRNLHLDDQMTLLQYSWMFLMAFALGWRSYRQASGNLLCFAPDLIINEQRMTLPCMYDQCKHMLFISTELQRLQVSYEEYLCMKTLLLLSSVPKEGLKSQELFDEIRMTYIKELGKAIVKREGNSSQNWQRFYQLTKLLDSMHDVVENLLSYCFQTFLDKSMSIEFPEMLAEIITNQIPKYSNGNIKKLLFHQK

B1: GST-GRNT3 (other)
chain: SSASTAVSAAPTEKEFPKTHSDVSSEQQHLKGQTGTNGGNVKLYTTDQSTFDILQDLEFSSGSPGKETNE
notes: not shown: glutathione S-transferase (GST) tag from the pGEX-4T3 vector
B2: GST-GRNT6 (other)
chain: FNVIPPIPVGSENWNRCQGSGDDNLTSLGTLNFPGRTVFSNGYSSPSMRPDVSSPPSSSSTATTGPPPKL
notes: as for B1
B3: GST-TPR1 (other)
chain: EMDTKEKLEQAAIVKEKGTVYFKGGKYMQAVIQYGKIVSWLEMEYGLSEK
modifications: also: GST tag fusion, linker not given here
notes: also called FKBP51TPR-1; not shown: glutathione S-transferase (GST) tag; vector stated only for the GR fragments (pGEX-4T3)
B4: GST-TPR2 (other)
chain: ESKASESFLLAAFLNLAMCYLKLREYTKAVECCDKALGLDSANEKGLYRR
modifications: cysteine pairing not given here; also: GST tag fusion, linker not given here
notes: also called FKBP51TPR-2; not shown: glutathione S-transferase (GST) tag; vector stated only for the GR fragments (pGEX-4T3)
B5: GST-GRNT2 (other)
chain: SNAQQPDLSKAVSLSMGLYMGETETKVMGNDLGFPQQGQISLSSGETDLKLLEESIANLNRSTSVPENPK
notes: as for B1
B6: GST-FK2 (other)
chain: EDGGIIRRTKRKGEGYSNPNEGATVEIHLEGRCGGRMFDCRDVAFTVGEGEDHDIPIGIDKALEKMQREEQCILYLGPRYGFGEAGKPKFGIEPNAELIYEVTLKSFEKAKESW
notes: also called FKBP51FK2; not shown: glutathione S-transferase (GST) tag; vector stated only for the GR fragments (pGEX-4T3)
B7: GST-TPR4 (other)
chain: IYANMFKKFAEQDAKEEANKAMGKKTSEGVTNEKGTDSQAMEEEKPEGHV
modifications: also: GST tag fusion, linker not given here
notes: also called FKBP51TPR-4; not shown: glutathione S-transferase (GST) tag; vector stated only for the GR fragments (pGEX-4T3)
B8: GST-GRNT1 (other)
chain: MDSKESLTPGREENPSSVLAQERGDVMDFYKTLRGGATVKVSASSPSLAVASQSDSKQRRLLVDFPKGSV
notes: as for B1
B9: GST-GRNT5 (other)
chain: EDFIELCTPGVIKQEKLGTVYCQASFPGANIIGNKMSAISVHGVSTSGGQMYHYDMNTASLSQQQDQKPI
notes: as for B1
B10: GST-GRNT4: GST-fusion protein of GRNT fragment 4 (protein)
chain: SPWRSDLLIDENCLLSPLAGEDDSFLLEGNSNEDCKPLILPDTKPKIKDNGDLVLSSPSNVTLPQVKTEK
modifications: also: GST fusion protein
B11: GST-FK1 (other)
chain: MTTDEGAKNNEESPTATVAEQGEDITSKKDRGVLKIVKRVGNGEETPMIGDKVYVHYKGKLSNGKKFDSSHDRNEPFVFSLGKGQVIKAWDIGVATMKKGEICHLLCKPEYAYGSAGSLPKIPSNATLFFEIELLDFKGEDLF
notes: also called FKBP51FK1; not shown: glutathione S-transferase (GST) tag; vector stated only for the GR fragments (pGEX-4T3)
B12: GST-GRNT: GST-fusion protein encoding the amino-terminus of GR (protein)
chain: MDSKESLTPGREENPSSVLAQERGDVMDFYKTLRGGATVKVSASSPSLAVASQSDSKQRRLLVDFPKGSVSNAQQPDLSKAVSLSMGLYMGETETKVMGNDLGFPQQGQISLSSGETDLKLLEESIANLNRSTSVPENPKSSASTAVSAAPTEKEFPKTHSDVSSEQQHLKGQTGTNGGNVKLYTTDQSTFDILQDLEFSSGSPGKETNESPWRSDLLIDENCLLSPLAGEDDSFLLEGNSNEDCKPLILPDTKPKIKDNGDLVLSSPSNVTLPQVKTEKEDFIELCTPGVIKQEKLGTVYCQASFPGANIIGNKMSAISVHGVSTSGGQMYHYDMNTASLSQQQDQKPIFNVIPPIPVGSENWNRCQGSGDDNLTSLGTLNFPGRTVFSNGYSSPSMRPDVSSPPSSSSTATTGPPPKL
modifications: left off: a dimerising Fc or GST
notes: GST-fusion protein encoding the amino-terminus of GR
B13: GST-GRCT (GST fusion of the carboxyl-terminus of GR) (other)
chain: CLVCSDEASGCHYGVLTCGSCKVFFKRAVEGQHNYLCAGRNDCIIDKIRRKNCPACRYRKCLQAGMNLEARKTKKKIKGIQQATTGVSQETSENPGNKTIVPATLPQLTPTLVSLLEVIEPEVLYAGYDSSVPDSTWRIMTTLNMLGGRQVIAAVKWAKAIPGFRNLHLDDQMTLLQYSWMFLMAFALGWRSYRQSSANLLCFAPDLIINEQRMTLPCMYDQCKHMLYVSSELHRLQVSYEEYLCMKTLLLLSSVPKDGLKSQELFDEIRMTYIKELGKAIVKREGNSSQNWQRFYQLTKLLDSMHEVVENLLNYCFQTFLDKTMSIEFPEMLAEIITNQIPKYSNGNIKKLLFHQK
notes: as for B1

Tests used:
FKBP51-TPR = biological target: T1, FKBP51-TPR; experiment: Surface plasmon resonance, binding of FKBP51 TPR domain to GR and its phosphorylation mutants; conditions: Flag-tagged GR immobilized on sensor chip, 25° C.
Description: The binding of FKBP51 TPR domain to GR and its phosphorylation mutants was determined by surface plasmon resonance using a Reichert SR7500DC instrument. Experiments were conducted at 25° C. with 2000 RU HEK293 expressed FLAG-tagged GR bound onto a FLAG antibody-coated Dextran 50,000 Da chip. Running buffer (PBS, pH 7.4 with 0.005% Tween 20) was used with a flow rate of 25 μl/min. With association time of 300s and dissociation of 240s, binding signals were determined by injecting various concentrations of the GST-FKBP51_TPR.

FKBP51 = biological target: T2, FKBP51; experiment: GST pull-down of FKBP51 by GST-GR fragments in mouse brain tissue; format: binding
Description: The present inventors identified that if increased GR-FKBP51 complex levels are part of the pathophysiology of PTSD, then disrupting the complex may rescue behaviors related to PTSD. To develop an agent (in this example, a peptide-based agent) capable of blocking the GR-FKBP51 interaction, experiments were first performed to identify the regions of the GR that are important to bind FKBP51 (and vice versa). Initially, GST-fusion proteins were used encoding the amino-terminus (NT) of GR (GRNT) and the carboxyl-terminus (CT) of GR (GRCT) for affinity purification. […] Extending this strategy, GRNT fragments were examined (see FIG. 8, where the 6 tested GRNT fragments, NT-1, NT-2, NT-3, NT-4, NT-5, and NT-6 are shown). […] Similarly, it was determined that the TPR (tetratricopeptide repeat) domains of FKBP51 bind GR (FIG. 2D). In these studies, GST-fusion proteins of 3 different portions of the FKBP51 protein were prepared (FK1, FK2, and TPR, see FIG. 9) and tested. The TPR fragment was identified as containing the relevant interaction region.
GST-fusion proteins encoding truncated GR fragments were amplified by PCR from full-length human cDNA clones. All constructs were sequenced to confirm the absence of PCR-generated errors. GST-fusion proteins were prepared from bacterial lysates with glutathione sepharose 4B beads as instructed by the manufacturer (Amersham).^25 To construct GST-fusion proteins encoding truncated GR, cDNA fragments were amplified by using PCR with specific primers. 5′ and 3′ oligonucleotides incorporated with specific restriction enzyme sites were used to facilitate sub-cloning into the pGEX-4T3 vector. To confirm appropriate splice fusion and correct nucleotide sequences, all constructs were re-sequenced.

[1] = biological target: T3, FK506 Binding Protein 51 (FKBP51), …; experiment: GST pull-down from mouse brain tissue, Western blot
[2] = biological target: T4, glucocorticoid receptor (GR), …; experiment: as above

Molecule | binding result [1] | binding result [2] | other results
WT GR: Flag-tagged wild-type glucocorticoid receptor expressed in HEK293 | – | – | Kd (FKBP51-TPR; figure legend values, read-out: KD for binding FKBP51-TPR (SPR)): 3.31 µM; Kd (FKBP51-TPR; read-out: KD for binding FKBP51 (SPR)): 3.31 ± 0.04 µM
GST-GRNT4-1: GST-fusion protein of GR fragment SPWRSDLLIDENCLL (S211-L225) (also: GST fusion protein) | – | – | pull-down (precipitation) of FKBP51 by GST-GR fragment, Western blot (FKBP51): can “pull-down”
B1 | no binding | – | –
B2 | no binding | – | –
B3 | – | no binding | –
B4 | – | no binding | –
B5 | no binding | – | –
B6 | – | no binding | –
B7 | – | no binding | –
B8 | no binding | – | –
B9 | no binding | – | –
B10 | – | – | pull-down (precipitation) of FKBP51 by GST-GR fragment, Western blot (FKBP51): can “pull-down”; pull-down (precipitation) of FKBP51 by GST-GR fragment, Western blot (FKBP51; listed as NT-4): best precipitation of FKBP51
B11 | – | no binding | –
B12 | – | – | pull-down (precipitation) of FKBP51 by GST-GR fragment, Western blot (FKBP51): can “pull-down”; also recorded: precipitated FKBP51
B13 | no binding | – | –
